According to US20150099790A1:

Tests used:
Assay in all cases: TAP purification of tagged bait from yeast, trypsin digestion, mass spectrometric identification of co-purified proteins
[1] = biological target: Fmp24 (Saccharomyces cerevisiae) (UniProt Q04472)
[2] = biological target: Gut2 (Saccharomyces cerevisiae) (UniProt P32191)
[3] = biological target: Mpc3 (S. cerevisiae, encoded by YGR243W) (S. cerevisiae) (UniProt P53311)
[4] = biological target: Mpm1 (Saccharomyces cerevisiae) (UniProt P40364)
[5] = biological target: Cor1 (Saccharomyces cerevisiae) (UniProt P07256)
[6] = biological target: Md12 (Saccharomyces cerevisiae) (UniProt P33311)
[7] = biological target: Nde1 (Saccharomyces cerevisiae) (UniProt P40215)
[8] = biological target: Qcr2 (Saccharomyces cerevisiae) (UniProt P07257)
Sequence of Qcr2 (Saccharomyces cerevisiae) (P07257 17-368 limits assumed): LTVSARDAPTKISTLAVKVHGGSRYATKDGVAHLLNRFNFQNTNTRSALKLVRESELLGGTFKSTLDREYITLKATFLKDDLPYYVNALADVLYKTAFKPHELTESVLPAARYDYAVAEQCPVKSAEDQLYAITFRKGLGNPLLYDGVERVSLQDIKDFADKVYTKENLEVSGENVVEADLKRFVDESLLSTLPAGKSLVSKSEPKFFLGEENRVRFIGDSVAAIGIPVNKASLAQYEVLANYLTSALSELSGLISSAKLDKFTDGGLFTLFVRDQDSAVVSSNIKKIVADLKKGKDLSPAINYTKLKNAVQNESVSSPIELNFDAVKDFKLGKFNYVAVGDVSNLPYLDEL

Sequence of Gut2 (Saccharomyces cerevisiae) (P32191 whole entry): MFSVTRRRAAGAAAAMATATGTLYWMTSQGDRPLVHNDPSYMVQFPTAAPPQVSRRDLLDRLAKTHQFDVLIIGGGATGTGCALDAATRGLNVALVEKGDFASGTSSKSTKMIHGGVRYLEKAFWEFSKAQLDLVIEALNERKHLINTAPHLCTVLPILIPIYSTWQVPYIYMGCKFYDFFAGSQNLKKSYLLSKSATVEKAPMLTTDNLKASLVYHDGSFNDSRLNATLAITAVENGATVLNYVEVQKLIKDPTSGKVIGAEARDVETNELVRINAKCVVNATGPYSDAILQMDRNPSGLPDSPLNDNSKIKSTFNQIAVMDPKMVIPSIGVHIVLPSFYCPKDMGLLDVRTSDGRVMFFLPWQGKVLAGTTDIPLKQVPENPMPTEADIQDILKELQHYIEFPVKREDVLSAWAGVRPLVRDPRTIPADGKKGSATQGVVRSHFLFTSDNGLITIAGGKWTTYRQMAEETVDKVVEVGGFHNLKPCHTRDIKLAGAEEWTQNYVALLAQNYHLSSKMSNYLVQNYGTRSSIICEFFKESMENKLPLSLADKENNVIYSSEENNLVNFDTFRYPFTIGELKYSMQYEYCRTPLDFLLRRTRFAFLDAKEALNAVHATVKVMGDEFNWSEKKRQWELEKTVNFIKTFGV
Sequence of Cor1 (Saccharomyces cerevisiae) (P07256 27-457 limits assumed): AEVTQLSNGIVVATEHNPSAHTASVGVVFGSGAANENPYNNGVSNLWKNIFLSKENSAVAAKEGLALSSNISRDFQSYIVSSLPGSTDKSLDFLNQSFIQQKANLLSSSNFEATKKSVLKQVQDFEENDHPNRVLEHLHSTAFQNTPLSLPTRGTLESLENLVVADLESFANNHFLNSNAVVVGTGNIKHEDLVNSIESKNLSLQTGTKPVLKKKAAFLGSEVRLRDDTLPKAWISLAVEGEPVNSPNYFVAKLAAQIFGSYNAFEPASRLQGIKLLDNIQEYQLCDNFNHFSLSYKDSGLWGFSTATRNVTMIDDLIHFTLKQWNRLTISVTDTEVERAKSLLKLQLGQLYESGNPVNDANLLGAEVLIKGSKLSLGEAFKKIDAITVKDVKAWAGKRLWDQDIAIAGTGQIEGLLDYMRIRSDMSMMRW
Sequence of Nde1 (Saccharomyces cerevisiae) (P40215 42-560 limits assumed): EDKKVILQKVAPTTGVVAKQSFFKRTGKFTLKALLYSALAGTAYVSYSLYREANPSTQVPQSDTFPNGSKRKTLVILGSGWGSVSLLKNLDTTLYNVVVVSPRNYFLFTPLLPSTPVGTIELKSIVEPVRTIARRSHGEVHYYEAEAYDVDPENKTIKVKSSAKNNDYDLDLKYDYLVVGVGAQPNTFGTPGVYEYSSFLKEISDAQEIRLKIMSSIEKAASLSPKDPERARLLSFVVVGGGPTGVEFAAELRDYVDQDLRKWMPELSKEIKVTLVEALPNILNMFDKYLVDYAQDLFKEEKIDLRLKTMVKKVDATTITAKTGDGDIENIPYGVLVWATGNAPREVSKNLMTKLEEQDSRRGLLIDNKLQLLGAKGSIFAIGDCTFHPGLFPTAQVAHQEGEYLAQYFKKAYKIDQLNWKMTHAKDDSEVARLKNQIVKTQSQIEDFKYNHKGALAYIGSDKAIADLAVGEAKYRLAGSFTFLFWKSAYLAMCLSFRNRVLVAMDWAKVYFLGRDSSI
Sequence of Mpm1 (Saccharomyces cerevisiae) (P40364 whole entry): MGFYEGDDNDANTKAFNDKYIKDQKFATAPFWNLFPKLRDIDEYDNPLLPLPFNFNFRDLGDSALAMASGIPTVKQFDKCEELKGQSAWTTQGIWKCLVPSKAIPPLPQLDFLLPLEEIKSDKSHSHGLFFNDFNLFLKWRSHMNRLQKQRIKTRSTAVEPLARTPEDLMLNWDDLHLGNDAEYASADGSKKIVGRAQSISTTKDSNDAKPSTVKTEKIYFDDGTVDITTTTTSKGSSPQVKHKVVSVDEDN
Sequence of Md12 (Saccharomyces cerevisiae) (P33311 91-773 limits assumed): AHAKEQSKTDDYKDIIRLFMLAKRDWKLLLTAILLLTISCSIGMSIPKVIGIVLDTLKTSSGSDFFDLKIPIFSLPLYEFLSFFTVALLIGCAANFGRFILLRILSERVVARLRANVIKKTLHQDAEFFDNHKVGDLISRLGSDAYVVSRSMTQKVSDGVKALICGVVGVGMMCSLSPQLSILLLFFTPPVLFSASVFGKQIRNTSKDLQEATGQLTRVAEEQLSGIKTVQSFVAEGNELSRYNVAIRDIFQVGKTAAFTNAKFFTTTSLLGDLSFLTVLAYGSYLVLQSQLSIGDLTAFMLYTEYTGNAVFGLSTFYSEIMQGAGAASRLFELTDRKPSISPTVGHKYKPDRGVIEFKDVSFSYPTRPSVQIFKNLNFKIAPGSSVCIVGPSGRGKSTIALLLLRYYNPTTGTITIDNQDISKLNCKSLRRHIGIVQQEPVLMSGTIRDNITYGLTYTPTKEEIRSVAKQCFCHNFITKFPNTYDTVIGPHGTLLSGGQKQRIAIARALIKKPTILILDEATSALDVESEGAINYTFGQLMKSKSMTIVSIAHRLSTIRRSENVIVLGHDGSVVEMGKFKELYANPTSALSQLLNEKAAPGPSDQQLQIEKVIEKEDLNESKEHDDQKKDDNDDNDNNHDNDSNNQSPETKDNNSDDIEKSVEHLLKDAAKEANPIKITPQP
Sequence of Fmp24 (Saccharomyces cerevisiae) (Q04472 whole entry): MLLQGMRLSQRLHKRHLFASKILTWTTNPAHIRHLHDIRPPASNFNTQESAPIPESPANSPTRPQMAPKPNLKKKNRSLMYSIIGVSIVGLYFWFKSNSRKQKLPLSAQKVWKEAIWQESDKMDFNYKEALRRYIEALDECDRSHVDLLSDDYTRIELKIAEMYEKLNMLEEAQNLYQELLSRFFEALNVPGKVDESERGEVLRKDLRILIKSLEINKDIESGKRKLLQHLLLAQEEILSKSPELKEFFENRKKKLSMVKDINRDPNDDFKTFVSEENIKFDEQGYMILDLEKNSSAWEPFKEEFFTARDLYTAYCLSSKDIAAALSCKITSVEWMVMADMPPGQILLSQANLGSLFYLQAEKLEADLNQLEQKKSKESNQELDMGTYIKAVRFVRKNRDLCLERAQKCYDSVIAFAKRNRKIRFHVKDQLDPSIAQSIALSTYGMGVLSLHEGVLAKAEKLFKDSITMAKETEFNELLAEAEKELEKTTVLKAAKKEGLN

Row | PSMs [1] [PSMs] | PSMs [2] [PSMs] | PSMs [3] [PSMs] | PSMs [4] [PSMs] | PSMs [5] [PSMs] | PSMs [6] [PSMs] | PSMs [7] [PSMs] | PSMs [8] [PSMs] | Substance
1 | 4 | 7 | 5 | 7 | – | – | – | – | Mpc1-His6/HA2 (from UniProt P53157 1-130)
2 | – | 4 | 5 | – | 5 | 28 | 6 | 3 | Mpc2, tagged variant used for TAP purification (from UniProt P38857 1-129)
